Assay: soluble on expression in E. coli; label from the status in PepcDB or PDB records

Sequence	soluble on expression in E. coli
MLKFRTVHGGLRLLGIRRTSTAPAASPNVRRLEYKPIKKVMVANRGEIAIRVFRACTELGIRTVAIYSEQDTGQMHRQKADEAYLIGRGLAPVQAYLHIPDIIKVAKENNVDAVHPGYGFLSERADFAQACQDAGVRFIGPSPEVVRKMGDKVEARAIAIAAGVPVVPGTDAPITSLHEAHEFSNTYGFPIIFKAAYGGGGRGMRVVHSYEELEENYTRAYSEALAAFGNGALFVEKFIEKPRHIEVQILGDQYGNILHLYERDCSIQRRHQKVVEIAPAAHLDPQLRTRLTSDSVKLAKQVGYENAGTVEFLVDRHGKHYFIEVNSRLQVEHTVTEEITDVDLVHAQIHVAEGRSLPDLGLRQENIRINGCAIQCRVTTEDPARSFQPDTGRIEVFRSGEGMGIRLDNASAFQGAVISPHYDSLLVKVIAHGKDHPTAATKMSRALAEFRVRGVKTNIAFLQNVLNNQQFLAGTVDTQFIDENPELFQLRPAQNRAQKLLHYLGHVMVNGPTTPIPVKASPSPTDPVVPAVPIGPPPAGFRDILLREGPEGFARAVRNHPGLLLMDTTFRDAHQSLLATRVRTHDLKKIAPYVAHNFSKLFSMENWGGATFDVAMRFLYECPWRRLQELRELIPNIPFQMLLRGANAVGYTNYPDNVVFKFCEVAKENGMDVFRVFDSLNYLPNMLLGMEAAGSAGGVVEAAISYTGDVADPSRTKYSLQYYMGLAEELVRAGTHILCIKDMAGLLKPTACTMLVSSLRDRFPDLPLHIHTHDTSGAGVAAMLACAQAGADVVDVAADSMSGMTSQPSMGALVACTRGTPLDTEVPMERVFDYSEYWEGARGLYAAFDCTATMKSGNSDVYENEIPGGQYTNLHFQAHSMGLGSKFKEVKKAYVEANQMLGDLIKVTPSSKIVGDLAQFMVQNGLSRAEAEAQAEELSFPRSVVEFLQGYIGVPHGGFPEPFRSKVLKDLPRVEGRPGASLPPLDLQALEKELVDRHGEEVTPEDVLSAAMYPDVFAHFKDFTATFGPLDSLNTRLFLQGPKIAEEFEVELERGKTLHIKALAVSDLNRAGQRQVFFELNGQLRSILVKDTQAMKEMHFHPKALKDVKGQIGAPMPGKVIDIKVVAGAKVAKGQPLCVLSAMKMETVVTSPMEGTVRKVHVTKDMTLEGDDLILEIE	soluble
MGSDKIHHHHHHMDGHRLIQPLHARTADVGGIPVNRVMPQRGRRLIGAWCFLDHAGPATFTVGAGGMRVGSHPHIGLQTFTWMLAGEIMHHDSLGNAQRIRPGELNLMTAGRGIAHTEESILESGQLHAAQLWITLPHATRHTSPRFDHYPDLPRWSEQGTDVTLLRGDFQGREAPTHAFSPLVGLDIVSPDATQLTLPARTDFEYGVLLLEGSLTIERDRFDTNEMAYLGSGLDEITLAMEAGTRALMLGGEPLNEDILIWWNFVGHSKAEIAEAQKEWEEWEAGSDRFGDVPEFDGERIMPPPIPWKVTAN	not soluble
MAHHHHHHMQKTLFDFVRKGTSSGPAAANAVAAAHRERQWPSASNGEDSTPRTDSPPKKHAKTRREGSRSRGNSRECEGTSLKGASRDDAIDLDASVSVALLESTFPPSEEGGAIDKSKHVSSGTAVPAGAAATAAASSGTARSDAPQLQPAATSSRWLAGLITNLEWRDFLAPITVDSWRSGAFARIEHFLDGEMAKGKVILPPATDIFNAFNSCPFRDLKVVLLGQDPYHDLHQAHGLCFSVLPEVPLPPSLRNIYKELTTDIPGFQAPRHGYLQSWSEQGMLMLNATLTVEAHKANSHSKASGWTAFTDAVIQHLSQHHPNRLVFLLWGGYAQQKKKLIDASRHIVLESVHPSPLSASRGWFGCHCFSACNEALQSMGHLPMHWQLPLNASLP	not soluble
FRRTGIRRIIIGQDQILFESSDNTVQIFPLNTLKSVDLYSTYDEMIELKAHRQPKITLSKSWIKRKDYRFIVSYLRERSATSGYKYTDYR	not soluble
MGSDKIHHHHHHMNTLTDVEWNAFALPANLADGHAYHDMHVAFMEIMKNLERIWSEADKITPPRMALDFKNSFSRLIKSPSLMPHTHYKICPSASNSIDLIAAFLHGKNIRTVLVEPTFDNLALLLQRRGVTVDSVSEDNLTHHLVDGNFDSIPAIKTAEAVFIVSPNNPTGYTLSLQEFKTLVAYCKRTEKLLVVDNSFRFFNRQGYDDYQVLLESGVNFIAFEDTGKTWPTQDLKASLIIYSDTVKVFFESLYNEIYLCVSNFVLHLFSHLFDATSAVGLKSVLWDVVDSNRALLRETLQGSVLRISETSKEGLK	not soluble
MEKQNFVVLKNICKRFGSNTVIGNLDLEIKKGSLVTLLGPSGCGKTTVLRLVAGLEKPTSGQIFIDGEDVTERSIQQRDICMVFQSYALFPHMSLYENVAYGLKMLKLPSEEVRQRVDEALKIVDLEGMGERYVDQISGGQQQRVALARALVLKPKVLLFDEPLSNLDANLRRSMRETIRELQQRFDITSLYVTHDQAEAFAVSDTVIVMKQGDIMQIGTPQELYKAPKSMFMANFMGEANMFQGHFDGQQIHINGYAIDADLEVTRDKPNGEYQIGVRPEAITLHTQGSESQACQILKSAYMGSMYEVTVKWHDQELLLQLNSAQFNHTLTQHAYVVFNPRGLFLLPYAE	not soluble
GGGGSSGGSTGGGSGSGPVTIEIGSKGEELAFDKTELTVSAGQTVTIRFKNNSAVQQHNWILVKGGEAEAANIANAGLSAGPAANYLPADKSNIIAESPLANGNETVEVTFTAPAAGTYLYICTVPGHYPLMQGKLVVN	soluble
MHEWALADAIVRTVLDYAQREGASRVKAVRVVLGELQDVAEDIVKFAMEQLFAGTIAEGAEIEFVEEEAVFKCRNCNYEWKLKEVKDKFDERIKEDIHFIPEVVHAFLACPKCGSHDFEVVKGRGVYVAGIKIEKEGGS	soluble
MTFQASGTTGITTLTVTEECRVQVGNVTATLARSKLKDDTAIGVIGVTALGCNGLQAALQADPDNYDATNLYMTSRNHDKLNVKLKATDGSSWTYGNGVFYKTEGGNWGGHVGISVDGNQTDKPTGEYTLNLTGGYWTNDNKQTFQASGTTGITTLTLEHHHHHH	soluble
MTDQPDLFGLAPDAPRPIIPANLPEDWQEALLPEFSAPYFHELTDFLRQERKEYTIYPPAPDVFNALRYTPLGEVKVLILGQDPYHGPNQAHGLSFSVRPGVRVPPSLRNIYKELTEDIPGFVAPKHGYLRSWAEQGVLLLNAVLTVRAGQANSHQGKGWEHFTDAVIKAVNAKEERVVFILWGSYARKKKKLITGKNHVVIESGHPSPLSEQYFFGTRPFSKTNEALEKAGRGPVEWQLPATVTEE	soluble
MKRTIILFDINETVLNLSALKPKFKATFGDESVMATWFSMLLHSSTVCIMTSVKTDFATLAGTMLESIAARMSIKLSKAARDDILAGFANLPPHNDIKPALAQLKSAGFRTVAFSNSSLNLISTQITNAGLKEYFDDIISVEETGSFKPDPTVYKFAAKRLNQPLESLRLVATHDWDTHGALSVEMRAAYINRSGAVYHPLYRQPDIYATTMEDIVKLIIEKDD	not soluble
MSLTQMEMARKGVVSDEMKKVAEYEGVDVEIVRQKLAEGRAVLPKNKLHRIERPMIVGEGFSVKVNANIGTSQGFSSLEEEKEKARVAIEYGADSLMVLSTWGDLREIRRAIVEMSPVPVGSVPIYDSAVRSYQMKKNVVDFSEKDFFDMVIAHAEDGIDFMTIHVGVTRRVLDRIKSSRRVLKIVSRGGAIIAGWMIKNNKENPFYEHFDELLDIAKDYDITLSLGDGMRPGAVVDASDAQQFEELFVMGELVERAREKGVQVMLEGPGHVPLNEVEMNVRLMKKIGKGAPIFLLGPLPTDRAMGYDHIACAIGGALAGYYGADFLCYVTPSEHISLPDVEDVREGVIASKIAAIVADVARGNKKAWELEKKMALARKNFDWETMFSLSLGKDVAKKKYEERPYPDKGCSMCGPFCAIKIAEEFSEGHHHHHH	soluble
MGSDKIHHHHHHMSKFHELTVASVTRETRDAVAVTFAVPEDLADTYRYVQGQHLTLRAGIGGEDVRRSYSICSAVQDRRLRVAIKRVDGGMFSNWANDALQPGMTLEVMPPSGHFHVPLSDTHSKHYVAFAAGSGITPMLSIIKTTLMTEPDSRFTLFYGNRASSSVLFKEELEDLKDTYLERFNLVFILSREQLDIDLFNGRIDGEKVRALLRHWVRPQDIDVAFICGPHSMMEEVSQALQENGVDKARIKRELFATSIPAARPAAHAHKQLGQQQCEVTVIQDGRTRQFTLEKNKETILDAALAQGIELPYSCKGGVCSTCRCKRIEGEVDMDVNFALEDYEVARGFILSCQSYAVTDKLVIDFDQET	not soluble
GFNPIIGTGISYKLSKKWSLAAEAFYSRRKVTYTSEVKDQNYIDRNTIIINNNPVTFEVSTTFTGTTKGEFDIHYLEFPLLAQYAIGNNWQIHAGMYYSWAFSKTNKGTATGIIGRTDISNPNTVTDKEYNYSKEVNSRYYGFVAGAQYQLSPAVALDLRATYSCKSLYKEDWEGVPYTLKDLYVQFTVKYFFIRAKD	not soluble
MAHHHHHHMADNITNDKRDIFKIHKWSAVAAWSWDISVDNCAICRNHIMDLCIECQAKTTDHENDKDKKIDKEGCTVAWGVCNHAFHLHCISRWIKARQVCPLDNTTWEFQKATD	soluble
MGSDKIHHHHHHMIQLHVYEEIVNFKEEVTPFLEKNEQENNLILGVLQMVHQPIFMGIAKQGEEIAVVFLQTEEKKQIIVATSEISGVAIKELAKELTKIYPDIPGLIGDKKVVQHLAEEIAVLENKKTNVVMEQGVYELKEVKKKPSEDGFFREVSSDELTLIEEWIYQFCEDVNLPTTKEEAKQTAHTLITNHRLFGLEVDGKLVSVAAKTRPTKNNITVNFVYTPKEARKKGYASNCVAALSQRMLDEGYKTTTLYTDLANPTSNKIYQEIGYEQIAESVLIFLEK	not soluble
MSEMSVIIEFSIVPMGEVSISKYVAEIIKLVRDRGVKYQLTPMGTILEVNSIEEGLSIIRDAHELMFKLGSKRVLTTIRIDERRDKARTMEDKVKSVMEKVESVRE	soluble
MSLFGTSTTAPAASTTPLFGSTAAAAPKPGGLFGAPAAAMSSGLFGASQTAPAPASAGLFGSTTAPTPASTSSVPLFGSTTTTASPSGGLFGAKTATTAAPAPTGGLFGASTAAPATGSLFGSTAPATGGLFGAKSTTSAAPTLGGGLFGSSTAPAAAATTSFGAPPATAAAPLGLGGIQQQNSSGGGLPNASGTATSSLTGTGDSKDASKDGEWTQAATLIRDLLPLIEDKFKKNREFMEETENMSIDNVAIEEQIDKTRGWIEEVRRDVLTATQSSERIAYLVSTDKTLCDTTKRVQEHSGSANQTTYMNAIKEHLAELCNFYGNDMDALQERVNFLRNRFEKLLTGEKSITMEELDAYFLRCDANVSNAHHHVTELGKEIEEIRDFLIEQGYTQLRKWSTTAASAAAPIASNSEMIVREGAEFFPSQSSLAIIGSSLRAPAAPAPAVGGLGLGTGTSLFGNTGTTSLFGSTATKPAFSGGSLFGATTSTATSSAAATTTTPTTSLFGSTKPATTTTPFASTVANNSSGLLFSSKK	not soluble
MSKDLVHPSLIRAGIVELEMAEETTDLINRTIESNQAHLQGEPLYVDSLPEDMSRLRIEDKSRRTKTEEEERDEGSSEEDNYLSEGQDPLIPFQNFLDEIGARAVKRLKTGEGFFRVWSALSDDIKGYVSTNIMTSGERDTKSIQIQTEPTASVSSGNESRHDSESMHDPNDKKDHTPDHDVVPDIESSTDKGEIRDIEGEVAHQVAESFSKKYKFPSRSSGIFLWNFEQLKMNLDDIVKAAMNVPGVERIAEKGGKLPLRCILGFVALDSSKRFRLLADNDKVARLIQEDINSYMARLEEAE	soluble
IGDVNLTLRGNFTYSKSEILEYDEEYSNYPYKSQRGFRVDQTRGLIALGLFKDYDDIRNSPKQSWGDVMPGDIKYADVNGDGYVNDNDIVPIGATTRPNLVYGFGLSGQWKGIDINVLFQGSGKSTFCIDGPTVYPFENGDWGNILTDVVKSNRWILGENEDPNAKYPRLSYGGNSNNYRASTYWLRNGSYLRLKNLEIGYTIPKSLVNKMHLNNIRIYFMGTNLVTFSSFKLWDPELGSSNGQKYPLSKSYTLGLTINI	not soluble
